Earlier results on 1 substance are cited in paper PMC5430804, “Structural and biochemical insights of CypA and AIF interaction” (Scientific Reports, 2017).

For this data set, the target named is AIF(Δ1-121) Δ1-121 (Homo sapiens) (UniProt O95831).

pKd: −log10 of the molar value.

Chain of AIF(Δ1-121) Δ1-121 (Homo sapiens) (O95831 1-121, stated change not applied): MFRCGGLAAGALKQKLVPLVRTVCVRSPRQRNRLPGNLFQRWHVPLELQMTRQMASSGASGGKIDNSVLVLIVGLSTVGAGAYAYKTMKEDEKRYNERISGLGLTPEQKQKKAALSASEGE
Chain of CypA (P62937 2-165): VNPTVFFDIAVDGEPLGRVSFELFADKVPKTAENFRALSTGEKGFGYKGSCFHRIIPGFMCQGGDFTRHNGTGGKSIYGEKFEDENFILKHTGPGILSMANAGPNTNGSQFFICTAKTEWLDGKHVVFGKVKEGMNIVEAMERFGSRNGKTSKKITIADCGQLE

One may read the pKd as −log10 of the Kd, conventionally taken in molar units. As for CypA (from UniProt P62937), the pKd was 6.05.
